# Results: the supplement of paper PMC5998384
# Tests used:
# HeLa Kyoto [1] = assay: solubility in G1/S (NP-40 vs SDS abundance) (log2 ratio); higher = more soluble; details: cell cycle stage: G1/S
# HeLa Kyoto [2] = assay: melting temperature (median over replicates), in situ; higher = more thermally stable
# HeLa Kyoto [3] = assay: solubility change mitosis vs G1/S (difference of NP-40 vs SDS log2 ratios) (log2 ratio difference); higher = more soluble in mitosis
# 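For melting temperature (median over replicates), in situ in this document: HeLa Kyoto cells synchronized by double thymidine or nocodazole block, proteins quantified by TMT10plex mass spectrometry, three independent biological replicates.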
# 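For solubility change mitosis vs G1/S (difference of NP-40 vs SDS log2 ratios) in this document: synchronized HeLa Kyoto cells (double thymidine block for G1/S, nocodazole release for mitosis), protein amounts in NP-40 versus SDS lysates quantified by mass spectrometry, three biological replicates.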
# 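For solubility in G1/S (NP-40 vs SDS abundance) in this document: HeLa Kyoto cells arrested at G1/S by double thymidine block, proteins quantified by TMT10plex mass spectrometry in mild NP-40 versus SDS extracts, three biological replicates.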
sequence,measurement,setting,value
MEDSGKTFSSEEEEANYWKDLAMTYKQRAENTQEELREFQEGSREYEAELETQLQQIETRNRDLLSENNRLRMELETIKEKFEVQHSEGYRQISALEDDLAQTKAIKDQLQKYIRELEQANDDLERAKRATIMSLEDFEQRLNQAIERNAFLESELDEKENLLESVQRLKDEARDLRQELAVQQKQEKPRTPMPSSVEAERTDTAVQATGSVPSTPIAHRGPSSSLNTPGSFRRGLDDSTGGTPLTPAARISALNIVGDLLRKVGALESKLASCRNLVYDQSPNRTGGPASGRSSKNRDGGERRPSSTSVPLGDKGLDTSCRWLSKSTTRSSSSC [NDE1],solubility in G1/S (log2),HeLa Kyoto [1],0.236
same,melting temperature,HeLa Kyoto [2]; cell cycle stage: G1/S,54.1 °C
same,melting temperature,HeLa Kyoto [2]; cell cycle stage: mitosis,53.7 °C
same,solubility change mitosis (log2),HeLa Kyoto [3],0.568
MEEYHRHCDEVGFNAEEAHNIVKECVDGVLGGEDYNHNNINQWTASIVEQSLTHLVKLGKAYKYIVTCAVVQKSAYGFHTASSCFWDTTSDGTCTVRWENRTMNCIVNVFAIAIVL [DYNLT3],solubility in G1/S (log2),HeLa Kyoto [1],-0.189
same,melting temperature,HeLa Kyoto [2]; cell cycle stage: G1/S,53.3 °C
same,melting temperature,HeLa Kyoto [2]; cell cycle stage: mitosis,54.1 °C
same,solubility change mitosis (log2),HeLa Kyoto [3],-0.243
MELFQAKDHYILQQGERALWCSRRDGGLQLRPATDLLLAWNPICLGLVEGVIGKIQLHSDLPWWLILIRQKALVGKLPGDHEVCKVTKIAVLSLSEMEPQDLELELCKKHHFGINKPEKIIPSPDDSKFLLKTFTHIKSNVSAPNKKKVKESKEKEKLERRLLEELLKMFMDSESFYYSLTYDLTNSVQRQSTGERDGRPLWQKVDDRFFWNKYMIQDLTEIGTPDVDFWIIPMIQGFVQIEELVVNYTESSDDEKSSPETPPQESTCVDDIHPRFLVALISRRSRHRAGMRYKRRGVDKNGNVANYVETEQLIHVHNHTLSFVQTRGSVPVFWSQVGYRYNPRPRLDRSEKETVAYFCAHFEEQLNIYKKQVIINLVDQAGREKIIGDAYLKQVLLFNNSHLTYVSFDFHEHCRGMKFENVQTLTDAIYDIILDMKWCWVDEAGVICKQEGIFRVNCMDCLDRTNVVQAAIARVVMEQQLKKLGVMPPEQPLPVKCNRIYQIMWANNGDSISRQYAGTAALKGDFTRTGERKLAGVMKDGVNSANRYYLNRFKDAYRQAVIDLMQGIPVTEDLYSIFTKEKEHEALHKENQRSHQELISQLLQSYMKLLLPDDEKFHGGWALIDCDPSLIDATHRDVDVLLLLSNSAYYVAYYDDEVDKVNQYQRLSLENLEKIEIGPEPTLFGKPKFSCMRLHYRYKEASGYFHTLRAVMRNPEEDGKDTLQCIAEMLQITKQAMGSDLPIIEKKLERKSSKPHEDIIGIRSQNQGSLAQGKNFLMSKFSSLNQKVKQTKSNVNIGNLRKLGNFTKPEMKVNFLKPNLKVNLWKSDSSLETMENTGVMDKVQAESDGDMSSDNDSYHSDEFLTNSKSDEDRQLANSLESVGPIDYVLPSCGIIASAPRLGSRSQSLSSTDSSVHAPSEITVAHGSGLGKGQESPLKKSPSAGDVHILTGFAKPMDIYCHRFVQDAQNKVTHLSETRSVSQQASQERNQMTNQVSNETQSESTEQTPSRPSQLDVSLSATGPQFLSVEPAHSVASQKTPTSASSMLELETGLHVTPSPSESSSSRAVSPFAKIRSSMVQVASITQAGLTHGINFAVSKVQKSPPEPEIINQVQQNELKKMFIQCQTRIIQI [INPP5F],solubility in G1/S (log2),HeLa Kyoto [1],-0.015
same,melting temperature,HeLa Kyoto [2]; cell cycle stage: G1/S,51.3 °C
same,melting temperature,HeLa Kyoto [2]; cell cycle stage: mitosis,49.3 °C
same,solubility change mitosis (log2),HeLa Kyoto [3],-0.171
MENFRKVRSEEAPAGCGAEGGGPGSGPFADLAPGAVHMRVKEGSKIRNLMAFATASMAQPATRAIVFSGCGRATTKTVTCAEILKRRLAGLHQVTRLRYRSVREVWQSLPPGPTQGQTPGEPAASLSVLKNVPGLAILLSKDALDPRQPGYQPPNPHPGPSSPPAAPASKRSLGEPAAGEGSAKRSQPEPGVADEDQTA [RPP25],solubility in G1/S (log2),HeLa Kyoto [1],0.179
same,melting temperature,HeLa Kyoto [2]; cell cycle stage: G1/S,54.5 °C
same,melting temperature,HeLa Kyoto [2]; cell cycle stage: mitosis,53.7 °C
same,solubility change mitosis (log2),HeLa Kyoto [3],0.258
MEPAGPCGFCPAGEVQPARYTCPRCNAPYCSLRCYRTHGTCAENFYRDQVLGELRGCSAPPSRLASALRRLRQQRETEDEPGEAGLSSGPAPGGLSGLWERLAPGEKAAFERLLSRGEAGRLLPPWRPWWWNRGAGPQLLEELDNAPGSDAAELELAPARTPPDSVKDASAAEPAAAERVLGDVPGACTPVVPTRIPAIVSLSRGPVSPLVRFQLPNVLFAYAHTLALYHGGDDALLSDFCATLLGVSGALGAQQVFASAEEALQAAAHVLEAGEHPPGPLGTRGAMHEVARILLGEGPTNQKGYTLAALGDLAQTLGRARKQAVAREERDHLYRARKKCQFLLAWTNENEAALTPLALDCARAHQAHAVVAEEVAALTGELERLWGGPVPPAPRTLIEELPS [ZNHIT2],solubility in G1/S (log2),HeLa Kyoto [1],0.384
same,melting temperature,HeLa Kyoto [2]; cell cycle stage: G1/S,48.9 °C
same,melting temperature,HeLa Kyoto [2]; cell cycle stage: mitosis,49.4 °C
same,solubility change mitosis (log2),HeLa Kyoto [3],0.141
MERFVVTAPPARNRSKTALYVTPLDRVTEFGGELHEDGGKLFCTSCNVVLNHVRKSAISDHLKSKTHTKRKAEFEEQNVRKKQRPLTASLQCNSTAQTEKVSVIQDFVKMCLEANIPLEKADHPAVRAFLSRHVKNGGSIPKSDQLRRAYLPDGYENENQLLNSQDC [CGGBP1],solubility in G1/S (log2),HeLa Kyoto [1],0.332
same,melting temperature,HeLa Kyoto [2]; cell cycle stage: G1/S,51.7 °C
same,melting temperature,HeLa Kyoto [2]; cell cycle stage: mitosis,51.8 °C
same,solubility change mitosis (log2),HeLa Kyoto [3],0.0407
MFPLTEENKHVAQLLLNTGTCPRCIFRFCGVDFHAPYKLPYKELLNELQKFLETEKDELILEVMNPPPKKIRLQELEDSIDNLSQNGEGRISVSHVGSTASKNSNLNVCNVCLGILQEFCEKDFIKKVCQKVEASGFEFTSLVFSVSFPPQLSVREHAAWLLVKQEMGKQSLSLGRDDIVQLKEAYKWITHPLFSEELGVPIDGKSLFEVSVVFAHPETVEDCHFLAAICPDCFKPAKNKQSVFTRMAVMKALNKIKEEDFLKQFPCPPNSPKAVCAVLEIECAHGAVFVAGRYNKYSRNLPQTPWIIDGERKLESSVEELISDHLLAVFKAESFNFSSSGREDVDVRTLGNGRPFAIELVNPHRVHFTSQEIKELQQKINNSSNKIQVRDLQLVTREAIGHMKEGEEEKTKTYSALIWTNKAIQKKDIEFLNDIKDLKIDQKTPLRVLHRRPLAVRARVIHFMETQYVDEHHFRLHLKTQAGTYIKEFVHGDFGRTKPNIGSLMNVTADILELDVESVDVDWPPALDD [PUS10],solubility in G1/S (log2),HeLa Kyoto [1],0.0782
same,melting temperature,HeLa Kyoto [2]; cell cycle stage: G1/S,50.8 °C
same,melting temperature,HeLa Kyoto [2]; cell cycle stage: mitosis,51.8 °C
same,solubility change mitosis (log2),HeLa Kyoto [3],-0.271
MGEEANDDKKPTTKFELERETELRFEVEASQSVQLELLTGMAEIFGTELTRNKKFTFDAGAKVAVFTWHGCSVQLSGRTEVAYVSKDTPMLLYLNTHTALEQMRRQAEKEEERGPRVMVVGPTDVGKSTVCRLLLNYAVRLGRRPTYVELDVGQGSVSIPGTMGALYIERPADVEEGFSIQAPLVYHFGSTTPGTNIKLYNKITSRLADVFNQRCEVNRRASVSGCVINTCGWVKGSGYQALVHAASAFEVDVVVVLDQERLYNELKRDLPHFVRTVLLPKSGGVVERSKDFRRECRDERIREYFYGFRGCFYPHAFNVKFSDVKIYKVGAPTIPDSCLPLGMSQEDNQLKLVPVTPGRDMVHHLLSVSTAEGTEENLSETSVAGFIVVTSVDLEHQVFTVLSPAPRPLPKNFLLIMDIRFMDLK [CLP1],solubility in G1/S (log2),HeLa Kyoto [1],-0.181
same,melting temperature,HeLa Kyoto [2]; cell cycle stage: G1/S,46.9 °C
same,melting temperature,HeLa Kyoto [2]; cell cycle stage: mitosis,48.8 °C
same,solubility change mitosis (log2),HeLa Kyoto [3],-0.0019
MGEIEGTYRVLQTAGMRLGAQTPVGVSTLEPGQTLLPRMQEKHLHLRVKLLDNTMEIFDIEPKCDGQVLLTQVWKRLNLVECDYFGMEFQNTQSYWIWLEPMKPIIRQIRRPKNVVLRLAVKFFPPDPGQLQEEYTRYLFALQLKRDLLEERLTCADTTAALLTSHLLQSEIGDYDETLDREHLKVNEYLPGQQHCLEKILEFHQKHVGQTPAESDFQVLEIARKLEMYGIRFHMASDREGTKIQLAVSHMGVLVFQGTTKINTFNWSKVRKLSFKRKRFLIKLHPEVHGPYQDTLEFLLGSRDECKNFWKICVEYHTFFRLLDQPKPKAKAVFFSRGSSFRYSGRTQKQLVDYFKDSGMKRIPYERRHSKTHTSVRALTADLPKQSISFPEGLRTPASPSSANAFYSLSPSTLVPSGLPEFKDSSSSLTDPQVSYVKSPAAERRSGAVAGGPDTPSAQPLGPPALQPGPGLSTKSPQPSPSSRKSPLSLSPAFQVPLGPAEQGSSPLLSPVLSDAGGAGMDCEEPRHKRVPADEAYFIVKEILATERTYLKDLEVITVWFRSAVVKEDAMPATLMTLLFSNIDPIYEFHRGFLREVEQRLALWEGPSKAHTKGSHQRIGDILLRNMRQLKEFTSYFQRHDEVLTELEKATKRCKKLEAVYKEFELQKVCYLPLNTFLLKPIQRLLHYRLLLRRLCGHYSPGHHDYADCHDALKAITEVTTTLQHILIRLENLQKLTELQRDLVGIENLIAPGREFIREGCLHKLTKKGLQQRMFFLFSDMLLYTSKGVAGTSHFRIRGLLPLQGMLVEESDNEWSVPHCFTIYAAQKTIVVAASTRLEKEKWMLDLNSAIQAAKSGGDTAPALPGRTVCTRPPRSPNEVSLEQESEDDARGVRSSLEGHGQHRANTTMHVCWYRNTSVSRADHSAAVENQLSGYLLRKFKNSHGWQKLWVVFTNFCLFFYKTHQDDYPLASLPLLGYSVSIPREADGIHKDYVFKLQFKSHVYFFRAESKYTFERWMEVIQGASSSAGRAPSIVQDGPQPSSGLEGMVRGKEE [FARP2],solubility in G1/S (log2),HeLa Kyoto [1],-0.166
same,melting temperature,HeLa Kyoto [2]; cell cycle stage: mitosis,50 °C
same,solubility change mitosis (log2),HeLa Kyoto [3],-0.0474
